# Measurements as given in the Human Domainome abundance scans (Beltran et al. 2025).
# ± gives the uncertainty stated by the source.
# B1: POU domain, class 2, transcription factor 2, residues 200 to 269; numbered along this chain, P09086 (parent)
# chain: LEELEQFARTFKQRRIKLGFTQGDVGLAMGKLYGNDFSQTTISRFEALNLSFKNMCKLKPLLEKWLNDAE
# Variants of: B1
# Assay: abundance fitness (aPCA) (normalised: wild type 0, dead -1); higher = more abundant; growth selection in yeast, the domain comes from the species named
# Settings: Homo sapiens
row,Variant,abundance fitness
1,G23M,-0.01 ± 0.062
2,G23Y,-0.218 ± 0.096
3,G23T,-0.102 ± 0.049
4,S43G,0 ± 0.034
5,S43H,-0.034 ± 0.034
6,L18D,-0.763 ± 0.17
7,L18V,-0.234 ± 0.039
8,K59C,-0.14 ± 0.066
9,K59P,-0.761 ± 0.12
10,K59W,-0.078 ± 0.054
11,K59F,-0.14 ± 0.094
12,K59H,-0.098 ± 0.14
13,K59L,-0.069 ± 0.035
14,A47Q,0.035 ± 0.058
15,A47W,-0.325 ± 0.053
16,A47H,-0.144 ± 0.08
17,A47G,-0.002 ± 0.037
18,A47S,0.053 ± 0.042
19,A47T,0.017 ± 0.05
20,A47K,-0.054 ± 0.083
21,S38C,-0.023 ± 0.059
22,S38Y,-0.234 ± 0.12
23,S38N,0.044 ± 0.073
24,S38D,0.241 ± 0.28

row,Variant,abundance fitness
1,S38V,-0.081 ± 0.041
2,S38K,-0.055 ± 0.061
3,S38A,-0.014 ± 0.053
4,L62G,-0.744 ± 0.064
5,R44C,-0.057 ± 0.069
6,R44M,-0.006 ± 0.049
7,R44F,-0.22 ± 0.067
8,R44E,0.088 ± 0.055
9,R44K,0.033 ± 0.066
10,R44Q,0.125 ± 0.069
11,R44I,-0.926 ± 0.36
12,L27W,-0.105 ± 0.04
13,L27V,0.015 ± 0.038
14,L27S,-0.073 ± 0.043
15,G19P,-0.98 ± 0.17
16,G19K,-0.092 ± 0.07
17,G19T,-0.521 ± 0.077
18,G19S,-0.118 ± 0.034
19,G19I,-0.793 ± 0.34
20,G19E,-0.301 ± 0.057
21,S51T,0.007 ± 0.04
22,S51H,-0.049 ± 0.075
23,S51F,-0.832 ± 0.1
24,S51Y,-0.461 ± 0.082

row,Variant,abundance fitness
1,L4D,-0.64 ± 0.19
2,L4I,0.012 ± 0.1
3,L4V,-0.08 ± 0.039
4,L4E,-0.523 ± 0.078
5,L4S,-0.253 ± 0.055
6,L4M,-0.032 ± 0.059
7,L4P,-0.367 ± 0.055
8,E5Y,-0.161 ± 0.11
9,E5M,0.048 ± 0.08
10,E5L,-0.093 ± 0.044
11,E5D,-0.051 ± 0.083
12,L50V,-0.036 ± 0.045
13,L50P,-0.674 ± 0.066
14,L50A,-0.103 ± 0.033
15,Q39N,-0.306 ± 0.097
16,Q39D,0.017 ± 0.082
17,Q39C,-0.077 ± 0.061
18,Q39E,0.01 ± 0.037
19,Q39I,-0.017 ± 0.063
20,L32Q,0.04 ± 0.072
21,L32V,-0.098 ± 0.045
22,L32S,-0.01 ± 0.046
23,L32C,-0.083 ± 0.081
24,L32R,-0.022 ± 0.035

row,Variant,abundance fitness
1,L32T,-0.071 ± 0.059
2,L32W,-0.201 ± 0.051
3,F37M,-0.024 ± 0.076
4,F37S,-0.24 ± 0.049
5,F37V,-0.065 ± 0.041
6,F37G,-0.28 ± 0.044
7,F37K,-0.434 ± 0.065
8,F37H,-0.093 ± 0.13
9,Q6I,-0.028 ± 0.095
10,Q6V,-0.05 ± 0.043
11,Q6P,-0.151 ± 0.067
12,Q6G,-0.048 ± 0.04
13,Q6Y,-0.056 ± 0.081
14,Q6R,-0.019 ± 0.034
15,Q6M,0.027 ± 0.052
16,I42V,-0.033 ± 0.037
17,I42S,-0.685 ± 0.24
18,I42F,-0.375 ± 0.12
19,I42Y,-0.511 ± 0.21
20,R14H,-0.118 ± 0.053
21,R14P,-1.23 ± 0.34
22,R14I,-0.261 ± 0.14
23,F52K,-0.031 ± 0.085
24,F52Y,-0.096 ± 0.14

row,Variant,abundance fitness
1,F52C,-0.062 ± 0.061
2,F52A,-0.038 ± 0.046
3,I16V,-0.039 ± 0.036
4,I16C,-0.149 ± 0.057
5,I16F,-0.141 ± 0.051
6,I16T,0.017 ± 0.074
7,I16P,-0.895 ± 0.12
8,I16G,-0.095 ± 0.032
9,I16S,-0.071 ± 0.044
10,I16H,-0.16 ± 0.083
11,E2W,0.039 ± 0.11
12,E2R,-0.066 ± 0.13
13,E2G,-0.046 ± 0.086
14,E2Y,-0.106 ± 0.24
15,E2H,-0.366 ± 0.094
16,Q22Y,-0.423 ± 0.1
17,Q22R,-0.11 ± 0.037
18,Q22C,-0.004 ± 0.07
19,Q22G,-0.187 ± 0.034
20,Q13T,0.001 ± 0.033
21,Q13M,-0.023 ± 0.04
22,Q13S,-0.006 ± 0.028
23,Q13F,-0.032 ± 0.089
24,Q13E,0.06 ± 0.048

row,Variant,abundance fitness
1,Q13G,-0.038 ± 0.034
2,Q13P,-0.293 ± 0.027
3,Q13R,-0.054 ± 0.029
4,A28I,-0.167 ± 0.077
5,A28D,0.024 ± 0.074
6,A28S,-0.079 ± 0.031
7,A28Q,0.061 ± 0.074
8,A28K,-0.021 ± 0.096
9,A28T,0.031 ± 0.069
10,A28R,-0.027 ± 0.037
11,A8Q,-0.63 ± 0.1
12,A8H,-0.604 ± 0.13
13,M29S,-0.552 ± 0.058
14,M29E,-0.976 ± 0.19
15,M29D,-0.314 ± 0.19
16,M29R,-0.655 ± 0.059
17,M29T,-0.075 ± 0.05
18,M29F,-0.146 ± 0.07
19,F20L,-0.004 ± 0.031
20,F20V,-0.13 ± 0.038
21,F20Y,-0.111 ± 0.1
22,F20S,-0.207 ± 0.04
23,F20A,-0.006 ± 0.043
24,M55H,-0.164 ± 0.075

row,Variant,abundance fitness
1,M55C,-0.439 ± 0.13
2,M55D,-0.435 ± 0.078
3,M55N,-0.463 ± 0.078
4,M55W,-0.24 ± 0.037
5,M55T,-0.213 ± 0.036
6,Y33T,-0.016 ± 0.056
7,Y33H,-0.01 ± 0.091
8,Y33Q,-0.07 ± 0.065
9,Y33S,-0.041 ± 0.035
10,Y33W,-0.105 ± 0.049
11,Y33M,-0.055 ± 0.076
12,D36S,-0.05 ± 0.041
13,D36M,-0.162 ± 0.07
14,D36P,-0.122 ± 0.053
15,D36C,-0.12 ± 0.05
16,D36I,-0.057 ± 0.08
17,D36R,-0.034 ± 0.04
18,F45A,-0.78 ± 0.095
19,F45K,-0.906 ± 0.12
20,F45V,-0.371 ± 0.048
21,F45Q,-0.977 ± 0.19
22,F45H,-1.04 ± 0.49
23,F45R,-0.965 ± 0.078
